In the nanobody polyreactivity screen of Harvey et al. (2022):

Assay: yeast display, Sf9 membrane polyspecificity reagent, FACS + sequencing; frameworks hold sequencing errors
In short: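 After 36–48 hours of galactose induction, yeast (Saccharomyces cerevisiae BJ5465) displaying a synthetic nanobody library were stained at 4 °C for 1 hour with 10% biotinylated, detergent-solubilized Sf9 membrane reagent. Streptavidin microbeads enriched the stained cells before FACS sorting into low and high (top ~1%) gates on anti-HA and streptavidin fluorescence. Each clone's polyreactivity label reflects its gate of origin.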

QVQLVESGGGLVQAGGSLRLSCAASGYTFLYNAMGWYRQAPGKERELVAAISWNGGRTYYADSVKGRFTISRDNAKNTVYLQMNSLKPEDTAVYYCAKTPSYGRNVDYWGQGTQVTVSS
polyreactivity (PSR sort gate): high polyreactivity

QVQLVESGGGLVQAGGSLRLSCAASGRNFHNYAMGWYRQATRKERELVAGISSRGGSTYYADSVKGRFTISRVNAKNTVYLQMNSLKPEVTAVYYCAKDKSPYGYATNQYRKYYYWGQGTQVTVSS
polyreactivity (PSR sort gate): low polyreactivity

QVQLVESGGGLVQAGGRLRLSCAASGRTFVPYAMGWYRQPPGKERELVAAISYSGDSTYYADSEKGRFTISRDNAKNTVYLQMNSLKPEDTAVYYCAARGGNPFYYWGQGTQVTVSS
polyreactivity (PSR sort gate): low polyreactivity

QDQLVESGGGLVQAGGSLRLSCAASGSIFPYNAMAWSRQAPGTERELVAGITYNGGSTYYADSVKGRFTISRDNAKNTVYLQMNSLKREDTAVYYCAAAGRRAFYRYDHWGQGTQVTVSS
polyreactivity (PSR sort gate): high polyreactivity

QVQLVESGGGLVQAGGSLRLSCAASGFTLGGNALGWYRQAPGKERELVAAITFSGGSTYYADSVKGRFTISRDNAKNIVYLQMNSLKPVDTAVYYCAKTHGYYYYYTYDYWGQGTQVTVSS
polyreactivity (PSR sort gate): low polyreactivity

QVQLVESGGGLVQAGGSLRLSCAASGFIFWSNARGWYRQAPGQDRELVAAINSSGGRTDYADSVKGRFTNSRDNAKNTDYLHMNSLKPEDTAVYYCAARLHSPPYRYDYWGQGTQVTVSS
polyreactivity (PSR sort gate): high polyreactivity

QVQLVESGGGLVQAGGSLRLTCAASGSIFDYYAMGWYRQAHGKERELVAAISDSGSTYYADSVKGRFTISRDNAKNTVYVQMNSLKAEDTAVYYCAAVLWSPYRSEPLDTYEYWGQGTQVTVSS
polyreactivity (PSR sort gate): low polyreactivity

QVQLVESGGGLVQAGGSLRLSCAASGRIFAYYAMGWYRQAPGKERELVATIRSGGDTNYADSVKGRFTISRDNAKNTVYLQMNSLKPEDTAVYYCNALYDWWYPHEYNYWGQVTQVTVSS
polyreactivity (PSR sort gate): low polyreactivity

QVQLVESGGGLVQAGGSLRLSSAASGFTFLYNAMGWYRQAPGKERELVASIRTGTGTYYADSVKGRFTISRDNAKNNVYLQMISLKPEDTAVYYCAADYRYKSQWWYRRFDYWGQGTQVNVSS
polyreactivity (PSR sort gate): high polyreactivity

QVQHVESVGGIVQAGGSLRLICAASGFIFVGYAMGWYRQAPGKERELVAAISTSGGRTYYADSVKGRFTISRDNAKNTVYLQLNSLKPEDTAVYYCAAKRPGCIQYSYYYWGQGTQVTVSS
polyreactivity (PSR sort gate): high polyreactivity

QVQLVESGGGLVQAGGSLRISCAASGRTFLKNTMGRYRQAPGKERELVAVITRNGDSTYADSVKGRFTISRDNAKNTVYLQMNSLKPEDTAVYYCATTYRDGVYELTTFDYWGQGTQVTVSS
polyreactivity (PSR sort gate): low polyreactivity

QVQLVESGGGLVQAGGSLRLSCAASGSIFPAYAMGWYRQAPGKERELVAAITRGGRTNYADSVKGRFTISRDNAKNSVYLQMNSLKPEDTAVYYCAKAVQGKYGYWGQGTQVTVSS
polyreactivity (PSR sort gate): high polyreactivity

QVQLVESGGGLVQAGGSLRLSSAASGFTFKGNALGWYRQAPGKERELVATITQSAGSTYYADSVKGRFTISRDNAKNTVYLQMNSLKPEDTAVYYCNADPITLYYYSWYNYWGQGTQGTVSS
polyreactivity (PSR sort gate): low polyreactivity

QVQLVESGGGLVQAGGSLRLSCAASGITFEYYAMGWYRQAPGKERELVAAIDTGGSTNYADSVKGRFTISRDNAKNTVYLQMNSLKPEDTAVYYCTADGPSTPWVDYGYWGQGTQVTVSS
polyreactivity (PSR sort gate): low polyreactivity

QVQLVESGGGLVQAGGSLPLSCAASGLIINYYVMGWYRQAPGKERELVAANTISGGRSYYADSVKVRFTISRDNAKNTVYLQMKCLNPEDTAVYYCARRFGPYRKGYQSYGIYDYWGQGTHVTVSS
polyreactivity (PSR sort gate): high polyreactivity

QVQLVESGGGLVQAGGSLRLSCAASGITFGPYAMGWYRQAPGKERELVAAITWGGGSTYYADSVKGRFTISRDNAKNTVYLQMNSLKPEDTAVYYCNAEGSTTSRYLPYDYWGQGTQVTVSS
polyreactivity (PSR sort gate): low polyreactivity

QVHLVESGGGLVQAGGSLLLSCAASGSIFYFYAMGWYRQAPGKERELVAGITWRGGRTYYADSVKGRFTISRDNAKNTVDLQMIILKPEDTAVYYCAARFWSTYGYDSWGQGTQVTVSS
polyreactivity (PSR sort gate): high polyreactivity

QVQLVESGGGLVQAGGSLRLSCAASGRIFVKYAMGWYRQAPGKERELVAAIRSGGSTYYADSVKGRFTISRDNAKNTVYLQMNRLKPEDTAVYYCAAERNKHHYYTEPYDYWGQGTQVTVSS
polyreactivity (PSR sort gate): low polyreactivity

QVQLVESGGGLVQAGGSLRLSCAASGRIFSKYAMGWYRQAPGKEREFVASISYRGGSTYYADSVKGRFTISRDNAKNTVYLQMNSLKPEDTAVYYCATRKYADRESDYWGQGTQVTVSS
polyreactivity (PSR sort gate): high polyreactivity

QVQLVESGGGLVQAGGSLRLSCAASGSILGIYGMGWYRQSRGKERELVAAISYSGGSTYYADSVKGRFSISRDNAKNTVYLQMNSLKPEDTAVYYCAADLTRGVSYYVDFYYWGQGTQVTVSS
polyreactivity (PSR sort gate): low polyreactivity

QVQLVESGGGLVQAGGSLRLSCAASGIIFPLYAMGWYRQAPGKERELVADITRGGSTYYADSVKGRFTISRDNAKNTVYLQMNSLKPEDTAVYYGNKQKRWTYSHYFPTTYDYWGQGTQVTVSS
polyreactivity (PSR sort gate): high polyreactivity

QVQLVESGGGLVQAGGSLRLSCAASGFIFGYNAMGWYRQAAGKERELVAAISYSGGGTYYADSVKGRFTISRDNAKNTVYLQMNSLKPEDTAVYYCAARSWGRRSYDYWGQGTQVTVSS
polyreactivity (PSR sort gate): high polyreactivity

QGQLVESGGGLVQAGGSLRLSCAASGSIFGNAMGWYIQAPGKEREFVAAISSSGSSTYYADSVKGRFTISRDNAKNTVYLQMNSLKPEDTAVYYCAARPPRVSYEYWGQGTQVTVSS
polyreactivity (PSR sort gate): high polyreactivity

QVQLVESGGGLVQAGGSLRLSCAASGSIFSYYVMGWYRQAPGKERELVARINWSSTSTYYADSVKGRFTISRDNAKNTVYLQMHSLKPEDTAVYYCAAAKRYGRYYEYDYWGQGTQVTVSS
polyreactivity (PSR sort gate): high polyreactivity

QVQLVESGGGLVQAGGSLRLSCAASGLTFQWNAMGWYRQAPGKERELVAGITDIGDSTYYADSVKGRFTISRDNAKNTVYFQMNSLKPEDTAVYYCNATSGYKHAWRSENGYWGQGTQVTVSS
polyreactivity (PSR sort gate): low polyreactivity

QVQLVESGGGLVQAGGSLRLSCASSGSTYYVYGMVWYRQAPGKERELVAAISWSGGDTYYADSVKGRFTISRDNAKKTVYFQMNPLKPEDTGVYYCAAVYNYPVVCEYDYWGQGTQVTVSS
polyreactivity (PSR sort gate): high polyreactivity

QVQLVESGVGLVQAGGSLSLSCAASGPYYFMGWYRQAPGKESELVAAITRRGGRTYYADSVKGRFTISRDNANITVYLQMNSLKPEDTAVYYCAAKYRYHVSGYDYWGQGTQVTVSS
polyreactivity (PSR sort gate): high polyreactivity

QVQLVESGGGLVQAGGSLRLSCAASGRTFARYAMGWYRQAPGKERELVAAISSSGGSTYYADSVKGRFTISRDNAKNTVYLQMNSLKQEDTAVYYCVTYRNWWYDYWGQGTQVTVSS
polyreactivity (PSR sort gate): high polyreactivity

QVQLVESGGGLVQAGGSLSLSCAASGGIFFIYTMGWKRQAPGKEREMVAAITSTGDTKYADSVKGRFTISRDNAKTTVYLQMNSLKPEDTAVYYCNKDNGTRGKGYDYWGQGTQVTVSS
polyreactivity (PSR sort gate): low polyreactivity

QVQLVESGGGLVQAGGSLRLSCAASGSISAVNAMGWYRQAPGKERELVAAITYSGGSTYYADSVKGRFTISRDHAQNTVYLQINSLKPEDTAVYNCAARARYPNWTYYYWGQGTQVTVSS
polyreactivity (PSR sort gate): high polyreactivity

QVQLVESGGGLVQAGGSLRLSCAASGFIFYSYALGWYRQAPGKEREFVASISGRTGSTYYADSVKGRFTISRDNAKNTVYLQMNSLKPEDTAVYYCNARIVHSFRYDYWGQGTQVTVSS
polyreactivity (PSR sort gate): low polyreactivity

QVQLVESGGGLVQAGGSLRLTCAASGRTFWYYAMGWYRQAPGKERELVAASYYSGDGTYYADSVKGRFTISRDNAKNTVYLQMTSLKPEDTALYYGAAEWSDPTLPTAWSEYEYWGQGTHVTVSS
polyreactivity (PSR sort gate): high polyreactivity
